Measurements from patent publication US20240317834A1, “COMPOSITIONS AND METHODS FOR NEUROLOGICAL DISEASES” (CODA BIOTHERAPEUTICS, INC., priority 2020, published 2024).
Changes are numbered by the printed parent chain. Numbers in names are those of the source.

B1: CODA1138: engineered chimeric LGIC receptor, W77F, R101F, L131D in SEQ ID NO: 33 (protein)
chain: MRCSPGGVWLALAASLLHVSLQGEFQRKLYKELVKNYNPLERPVANDSQPLTVYFSLSLLQIMDVDEKNQVLTTNIFLQMSWTDHYLQWNVSEYPGVKTVFFPDGQIWKPDILLYNSADERFDATFHTNVDVNSSGHCQYLPPGIFKSSCPMDLKNFPMDVQTCKLKFGSWSYGGWSLDLQMQEADISGYIPNGEWDLVGIPGKRSERFYECCKEPYPDVTFTVTMRRRMGYYLIQMYIPSLLIVILSWISFWINMDAAPARVGLGITTVLTMTTQSSGSRASLPKVSYVKAIDIWMAVCLLFVFSALLEYAAVNFVSRQHKELLRFRRKRRHHKSPMLNLFQEDEAGEGRFNFSAYGMGPACLQAKDGISVKGANNSNTTNPPPAPSKSPEEMRKLFIQRAKKIDKISRIGFPMAFLIFNMFYWIIYKIVRREDVHNQ
modifications: synthetic sequence of chimeric LGIC
B2: CODA1173: engineered chimeric LGIC receptor, S172D, Y210W in SEQ ID NO: 33 (protein)
chain: B1 chain with F77W, F101R, D131L, S172D, Y210W
modifications: synthetic sequence of chimeric LGIC
B3: CODA1157: engineered chimeric LGIC receptor, Q139E, S172D in SEQ ID NO: 33 (protein)
chain: B1 chain with F77W, F101R, D131L, Q139E, S172D
modifications: synthetic sequence of chimeric LGIC

System: Lenti-X 293T cells
Assay: YFP fluorescence quenching anion reporter plate reader assay of engineered receptors stimulated with acetylcholine or a non-native ligand
Format: cell-based
Conditions: for percent quench of YFP fluorescence, 10 uM ach: acetylcholine 10 uM; for percent quench of YFP fluorescence, 30 uM ach: acetylcholine 30 uM; for percent quench of YFP fluorescence, 100 uM ach: acetylcholine 100 uM; for percent quench of YFP fluorescence, 300 uM ach: acetylcholine 300 uM; for percent quench of YFP fluorescence, 1 mM ach: acetylcholine 1 mM; for percent quench of YFP fluorescence, 3 mM ach: acetylcholine 3 mM
Outline: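 YFP quench was followed for about 1 min 43 s after ligand delivered in iodide-based ECS, pH 7.2. Values are end-of-read fluorescence (last 10 s) divided by the pre-ligand baseline (15 s). Cells were LX293T, transfected with receptor DNA a day before the assay.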

Row | Molecule | YFP fluorescence quenching using CNL001 (1 nM CNL001, first column) | YFP fluorescence quenching using CNL001 (1 nM CNL001, second column) | YFP fluorescence quenching using Varenicline (3 nM var, first column) | YFP fluorescence quenching using Varenicline (3 nM var, second column) | YFP fluorescence quenching using CNL001 (10 nM CNL001, first column) | YFP fluorescence quenching using CNL001 (10 nM CNL001, second column) | YFP fluorescence quenching using Varenicline (30 nM var, first column) | YFP fluorescence quenching using Varenicline (30 nM var, second column) | YFP fluorescence quenching using CNL001 (50 nM CNL001, first column) | YFP fluorescence quenching using CNL001 (50 nM CNL001, second column) | YFP fluorescence quenching using ABT-126 (50 nM abt) | YFP fluorescence quenching using CNL001 (100 nM CNL001, first column) | YFP fluorescence quenching using CNL001 (100 nM CNL001, second column) | YFP fluorescence quenching using CNL002 (100 nM CNL002) | YFP fluorescence quenching using ABT-126 (100 nM abt) | YFP fluorescence quenching using ABT-126 (300 nM abt) | YFP fluorescence quenching using Varenicline (300 nM var, first column) | YFP fluorescence quenching using Varenicline (300 nM var, second column) | YFP fluorescence quenching using Varenicline (500 nM var, first column) | YFP fluorescence quenching using Varenicline (500 nM var, second column) | other results
1 | B1 | −6.175% | 5.89% | 3.893 | 1.107 | −2.032% | 7.601% | 0.972 | 0.872 | 9.263% | 4.423% | −11.71% | 24% | 30.448% | 81.66% | −5.13% | 15.09% | 2.282 | −0.288 | 3.637 | −1.804 | YFP fluorescence quenching using CNL002 (1 nM CNL002): −2.209%; YFP fluorescence quenching using CNL002 (10 nM CNL002): 43.044%; YFP fluorescence quenching using CNL002 (50 nM CNL002): 73.418%; YFP fluorescence quenching using CNL001 (1 uM CNL001, first column): 73.823%; YFP fluorescence quenching using CNL001 (1 uM CNL001, second column): 73.271%; YFP fluorescence quenching using CNL002 (1 uM CNL002): 81.69%; YFP fluorescence quenching using ABT-126 (1 uM abt): 56.63%; YFP fluorescence quenching using Varenicline (1 uM var, first column): −1.84; YFP fluorescence quenching using Varenicline (1 uM var, second column): 6.36; YFP fluorescence quenching using ABT-126 (10 uM abt): 75.93%; percent quench of YFP fluorescence, 10 uM ach: −12.92%; percent quench of YFP fluorescence, 30 uM ach: −15.36%; percent quench of YFP fluorescence, 100 uM ach: −19.35%; percent quench of YFP fluorescence, 300 uM ach: −14.79%; percent quench of YFP fluorescence, 1 mM ach: 37.5%; percent quench of YFP fluorescence, 3 mM ach: 61.73%
2 | B2 | 16.321% | 30.264% | 9.211 | 7.193 | 61.978% | 65.343% | 7.821 | 9.078 | 73.006% | 74.903% | 5.15% | 76% | 76.759% | 70.15% | 25.08% | 66.86% | 6.933 | 8.36 | 5.501 | 7.04 | YFP fluorescence quenching using CNL001 (1 uM CNL001, first column): 76.928%; YFP fluorescence quenching using CNL001 (1 uM CNL001, second column): 76.619%; YFP fluorescence quenching using CNL002 (1 uM CNL002): 77.33%; YFP fluorescence quenching using ABT-126 (1 uM abt): 66.94%; YFP fluorescence quenching using Varenicline (1 uM var, first column): 7.174; YFP fluorescence quenching using Varenicline (1 uM var, second column): 5.185; YFP fluorescence quenching using ABT-126 (10 uM abt): 78.67%; percent quench of YFP fluorescence, 1 mM ach: −6.12%; percent quench of YFP fluorescence, 3 mM ach: 11.31%
3 | B3 | 68.362% | 69.495% | −0.225 | −1.954 | 75.078% | 74.193% | 1.269 | 5.972 | 77.481% | 77.205% | −26.77% | 77% | 77.042% | 80.62% | −24.64% | −10.64% | 6.84 | 5.943 | 8.717 | 6.41 | YFP fluorescence quenching using CNL001 (1 uM CNL001, first column): 78.2%; YFP fluorescence quenching using CNL001 (1 uM CNL001, second column): 76.244%; YFP fluorescence quenching using CNL002 (1 uM CNL002): 81.32%; YFP fluorescence quenching using ABT-126 (1 uM abt): 19.57%; YFP fluorescence quenching using Varenicline (1 uM var, first column): 5.635; YFP fluorescence quenching using Varenicline (1 uM var, second column): 7.068; YFP fluorescence quenching using ABT-126 (10 uM abt): 55.64%; percent quench of YFP fluorescence, 10 uM ach: −36.89%; percent quench of YFP fluorescence, 30 uM ach: −37.78%; percent quench of YFP fluorescence, 100 uM ach: −25.67%; percent quench of YFP fluorescence, 300 uM ach: −18.94%; percent quench of YFP fluorescence, 1 mM ach: 16.38%; percent quench of YFP fluorescence, 3 mM ach: 45.71%
